This is an account of results in patent US20200062856A1 (XDCEXPLORER SHANGHAI, published 2020).

Substitutions are numbered along the chain they refer to.

T1: human TPBG antigen immobilized on a CM5 chip (human, UniProt Q13641 32-355, limits assumed)
T1 sequence (looked up): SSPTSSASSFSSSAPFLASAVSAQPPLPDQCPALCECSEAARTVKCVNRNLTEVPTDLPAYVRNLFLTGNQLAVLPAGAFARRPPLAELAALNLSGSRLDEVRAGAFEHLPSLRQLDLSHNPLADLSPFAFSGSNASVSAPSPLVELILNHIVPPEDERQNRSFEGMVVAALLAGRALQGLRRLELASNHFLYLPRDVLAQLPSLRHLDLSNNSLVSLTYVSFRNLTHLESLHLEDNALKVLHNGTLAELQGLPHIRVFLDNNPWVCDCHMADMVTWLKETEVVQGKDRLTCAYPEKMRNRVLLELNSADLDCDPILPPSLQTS

T2: human TPBG-hFc protein (human, UniProt Q13641 32-355)
T2 construct: range 32-355; Expressed in HEK293 cells, purified on protein A; also called immunogen A; hFc tagged TPBG protein; not shown: human IgG Fc fragment of the pCpC vector
T2 sequence (looked up): T1 sequence (looked up)

B1: Humanized antibody 28D4-8 (antibody, V domains shown)
VH: EVQLVESGGGLVKPGGSLRLSCAASGFTFSNYVMSWARQAPGKRLEWVAEISTGGSHTYYSDTVTGRFTISRDNAKKSLYLQMNSLRAEDTAVYYCIMFYYGSSYSMDYWGQGTTVTVSS
VL: DIQMTQSPSSLSASVGDRVTITCRASQDIRNYLNWYQQKPGKAPKLLIYHTSRLHSGVPSRFSGSGSGTDYTFTISSLQPEDIATYYCQQGDTLPLTFGQGTRLEIK
notes: also called h28D4-8
B2: Humanized antibody 28D4-12 (antibody, V domains shown)
VH: B1 VH
VL: B1 VL with A43T, P44V, Y87F
notes: also called h28D4-12
B3: Humanized antibody 12B12-16 (antibody, V domains shown)
VH: EVQLVESGGGVVQPGRSLRLSCAASGFTFSNFGMHWVRQAPGKGLEWVAYISSGSTSFYYADTVKGRFTISRDNSKNTLYLQMNSLRAEDTAVYYCSRTNSLLRGFFDAWGQGTTVTVSS
VL: DIVLTQTPLSLSVTPGQPASISCRASQSVSSSSYTYLHWYLQKPGQPPQLLIKSASNLESGVPDRFSGSGSGTDFTLKISRVEAEDVGVYYCQHSWEIPLTFGQGTKLEIK
notes: also called h12B12-16
B4: Humanized antibody 12B12-4 (antibody, V domains shown)
VH: B3 VH with V11L, R16G, A49S, S75A, T78S, A88D, S97A
VL: DIVLTQSPDSLAVSLGERATINCRASQSVSSSSYTYLHWYQQKPGQPPKLLIKSASNLESGVPDRFSGSGSGTDFTLTISSLQAEDVAVYYCQHSWEIPLTFGQGTKLEIK
notes: also called h12B12-4
B5: Humanized antibody 12B12-5 (antibody, V domains shown)
VH: B3 VH with V11L, R16G, A49S, S75A, T78S, A88D
VL: B4 VL
notes: also called h12B12-5
B6: Humanized antibody 28D4-6 (antibody, V domains shown)
VH: B1 VH with A37I, R44G, A49S, K77N
VL: B1 VL
notes: also called h28D4-6
B7: Humanized antibody 28D4-5 (antibody, V domains shown)
VH: B1 VH with A37I, R44G, A49S, K77N, I97A, M98R
VL: B1 VL
notes: also called h28D4-5
B8: Humanized antibody 28D4-2 (antibody, V domains shown)
VH: B1 VH with A37I, R44G, A49S, K77N
VL: B1 VL with Y71F
notes: also called h28D4-2
B9: Humanized antibody 28D4-1 (antibody, V domains shown)
VH: B1 VH with A37I, R44G, A49S, K77N, I97A, M98R
VL: B1 VL with Y71F
notes: also called h28D4-1
B10: Humanized antibody 28D4-11 (antibody, V domains shown)
VH: B1 VH with A37I, R44G
VL: B1 VL with A43T, P44V, Y87F
notes: also called h28D4-11
B11: Humanized antibody 28D4-9 (antibody, V domains shown)
VH: B1 VH with A37I, R44G, A49S, K77N, I97A, M98R
VL: B1 VL with A43T, P44V, Y87F
notes: also called h28D4-9
B12: Humanized antibody 28D4-10 (antibody, V domains shown)
VH: B1 VH with A37I, R44G, A49S, K77N
VL: B1 VL with A43T, P44V, Y87F
notes: also called h28D4-10
B13: Humanized antibody 12B12-14 (antibody, V domains shown)
VH: B3 VH with V11L, R16G, S75A, T78S, A88D
VL: B3 VL
notes: also called h12B12-14
B14: Humanized antibody 12B12-6 (antibody, V domains shown)
VH: B3 VH with V11L, R16G, S75A, T78S, A88D
VL: B4 VL
notes: also called h12B12-6
B15: Humanized antibody 12B12-10 (antibody, V domains shown)
VH: B3 VH with V11L, R16G, S75A, T78S, A88D
VL: B3 VL with L4M, K53Y
notes: also called h12B12-10
B16: Humanized antibody 12B12-8 (antibody, V domains shown)
VH: B3 VH
VL: B4 VL
notes: also called h12B12-8
B17: Humanized antibody 12B12-9 (antibody, V domains shown)
VH: B3 VH with V11L, R16G, A49S, S75A, T78S, A88D
VL: B3 VL with L4M, K53Y
notes: also called h12B12-9
B18: Humanized antibody 12B12-13 (antibody, V domains shown)
VH: B3 VH with V11L, R16G, A49S, S75A, T78S, A88D
VL: B3 VL
notes: also called h12B12-13
B19: Humanized antibody 12B12-3 (antibody, V domains shown)
VH: B3 VH
VL: B4 VL with L4M, K53Y
notes: also called h12B12-3
B20: Humanized antibody 12B12-1 (antibody, V domains shown)
VH: B3 VH with V11L, R16G, A49S, S75A, T78S, A88D
VL: B4 VL with L4M, K53Y
notes: also called h12B12-1
B21: Humanized antibody 12B12-2 (antibody, V domains shown)
VH: B3 VH with V11L, R16G, S75A, T78S, A88D
VL: B4 VL with L4M, K53Y
notes: also called h12B12-2
B22: Humanized antibody 12B12-7 (antibody, V domains shown)
VH: B3 VH with S97A
VL: B4 VL
notes: also called h12B12-7
B23: Humanized antibody 12B12-11 (antibody, V domains shown)
VH: B3 VH
VL: B3 VL with L4M, K53Y
notes: also called h12B12-11

The target in the first assay is T1, human TPBG antigen immobilized on a CM5 …. The assay is described as follows: SPR (Biacore), human TPBG antigen immobilized on CM5 chip. Here is the method:
To assess the binding specificity and affinity of the humanized anti-TPBG antibody, Biacore analysis was performed using human TPBG antigen immobilized on a CM5 chip. Biacore technique utilizes the change in the refractive index of surface layer after antibody binding to the TPBG antigen immobilized on the surface layer. The binding was determined by surface plasmon resonance (SPR) through detecting the laser refracted from the surface. Non-specific and specific interactions were distinguished by analysis of signal kinetics binding rate and dissociation rate. Chimeric antibodies 12B12 and 28D4 were used as controls.
Background: Surface plasmon resonance follows binding to a sensor surface in real time, without labels.
One may read the Kd as a measure of binding affinity in units of concentration. By koff is commonly meant the first-order rate constant of dissociation. High values mean fast dissociation, low ones slow dissociation. One may read the kon as the second-order rate constant of association. A higher kon goes with faster complex formation. Turning to B1, the Kd was found to be 0.0296 nM, the koff was 3.01e-05 s⁻¹ and the kon was determined as 1.02e+06 M⁻¹ s⁻¹.

B2 displayed a Kd of 0.0381 nM, a koff of 3.94e-05 s⁻¹ and a kon of 1.03e+06 M⁻¹ s⁻¹.

The molecule B3 displayed a Kd of 0.0229 nM, a koff of 3.65e-05 s⁻¹ and an on-rate constant (kon) of 1.59e+06 M⁻¹ s⁻¹.

B4 came in with a Kd of 0.022 nM, a koff of 3.46e-05 s⁻¹ and a kon of 1.58e+06 M⁻¹ s⁻¹.

Consider B5, for which the Kd is 0.0179 nM, the koff worked out at 2.1e-05 s⁻¹ and the kon turned out to be 1.17e+06 M⁻¹ s⁻¹.

For the next assay, the target named is T2, human TPBG-hFc protein. The assay is described as follows: ELISA, coated human TPBG-hFc. The method, then:
The purified human TPBG-hFc obtained from step (1) diluting with PBS to a final concentration of 1.0 μg/mL was aliquoted into a 96-well ELISA plate at 100 μL per well, and sealed with a parafilm and incubated at 4° C. overnight. The plate was washed twice with plate washing buffer (PBS containing 0.01% (v/v) Tween 20), and blocked with blocking buffer (PBS containing 0.01% (v/v) Tween 20 and 1% (w/w) BSA) at room temperature for 2 h. The blocking buffer was discarded, and […] per well of the purified antibody TPBG was added. After incubating at 37° C. for 2 h, the plate was washed for three times with plate washing buffer (PBS containing 0.01% (v/v) Tween 20). HRP (horseradish peroxidase)-labeled secondary antibody (purchased from Sigma) was added and incubated at 37° C. for 2 h, and the plate was washed for three times using plate washing buffer (PBS containing 0.01% (v/v) Tween 20). 100 μL of TMB substrate was aliquoted into each well, incubated at room temperature for 30 min, and 100 μL of stop buffer (1.0 N HCl) per well was subsequently added. A_{450 nm} values were read using the ELISA plate reader (SpectraMax 384plus purchased from Molecular Device), and the results were shown in Table 5. […] In Table 5 the IgG control herein is a mice IgG control, the data in the Table are OD_{450 nm} values, and Blank represents the OD_{450 nm} value of PBS buffer in the plate.
The purified humanized TPBG antibody obtained from Embodiment 1 was reacted with human TPBG-hFc, for the method, see (5) Identification of lead antibody in Embodiment 1. The EC50 in Table 11 and Table 12 are calculated according to the OD450 nm value of the h12B12 variants and the h28D4 variants, respectively. […] FIGS. 7A and 7B are the binding reactions of purified humanized h12B12 variants to human TBPG-hFc protein, and FIGS. 8A and 8B are the binding reactions of the purified humanized h28D4 variants to human TBPG-hFc protein.
Background: An ELISA detects its analyte on a solid surface through an enzyme-linked reagent.
A word on the EC50: it is the concentration at which the effect is half-maximal. Read a low EC50 as an effect from little substance. B1 displayed an EC50 of 0.162 nM. On the same count and under the same terms, for B6 the value was 0.205 nM; for B2, 0.167 nM; for B7, 0.782 nM. The same measure, in the same setting: to B8 belongs 0.181 nM; to B9, 0.364 nM. The molecule B10 registered an EC50 of 0.191 nM.

B11 yielded an EC50 of 0.218 nM. As for B12, a half-maximal effect (EC50) was put at 0.224 nM. The EC50 values of the last two molecules are within 1.5-fold of each other. On the same count and under the same terms, to B3 belongs 0.2 nM; to B13, 0.257 nM. The same measure, in the same setting: for B14 the value was 0.362 nM. On the same count and under the same terms, for B4 the value was 0.227 nM; for B15, 0.25 nM; for B16, 0.287 nM. B5 gave an EC50 of 0.253 nM. This EC50 and that of the molecule before are within 1.5-fold of each other. As to B17, it took 0.223 nM to reach a half-maximal effect (EC50). Still for that read-out and setting: for B18 the value was 0.289 nM; for B19, 0.333 nM. Still for that read-out and setting: to B20 belongs 0.248 nM; to B21, 0.274 nM. The same measure, in the same setting: for B22 the value was 0.367 nM.

B23 registered an EC50 of 0.239 nM.
